According to article PMC7925596, “Exploring targeting peptide-shell interactions in encapsulin nanocompartments” (Scientific Reports, 2021):

B1: mNeonGreen C-terminally fused to the T1 consensus targeting peptide (peptide)
chain: DGSLGIGSLKG
notes: consensus targeting peptide found in T1 encapsulin systems; The targeting peptide is at the C-terminus of mNeonGreen; also called mNeonGreenTP (T1 consensus TP); T1 consensus TP; source: E. coli One shot BL21 (DE3) Star, pCDF-Duet1, IPTG induced before encapsulin; co-purified with encapsulin particles; not shown: mNeonGreen, N-terminal, kept
B2: mNeonGreen C-terminally fused to the native T1 targeting peptide (peptide)
chain: NTGGDLGIRK
notes: native targeting peptide of the T. maritima (T1) encapsulin system, from the C-terminus of the native cargo protein; The targeting peptide is at the C-terminus of mNeonGreen; also called mNeonGreenTP (native T1 TP); native T1 TP; source: E. coli One shot BL21 (DE3) Star, pCDF-Duet1, IPTG induced before encapsulin; co-purified with encapsulin particles; not shown: mNeonGreen, N-terminal, kept
B3: mNeonGreen C-terminally fused to the native T3 targeting peptide (peptide)
chain: PLTVGSLRRGG
notes: native 11-residue targeting peptide of the M. xanthus (T3) encapsulin system; The targeting peptide is at the C-terminus of mNeonGreen; also called mNeonGreenTP (native T3 TP); native T3 TP; source: E. coli One shot BL21 (DE3) Star, pCDF-Duet1, IPTG induced before encapsulin; co-purified with encapsulin particles; not shown: mNeonGreen, N-terminal, kept
B4: Thermotoga maritima encapsulin (T1 encapsulin shell) (natural protein, T. maritima)
chain: MEFLKRSFAPLTEKQWQEIDNRAREIFKTQLYGRKFVDVEGPYGWEYAAHPLGEVEVLSDENEVVKWGLRKSLPLIELRATFTLDLWELDNLERGKPNVDLSSLEETVRKVAEFEDEVIFRGCEKSGVKGLLSFEERKIECGSTPKDLLEAIVRALSIFSKDGIEGPYTLVINTDRWINFLKEEAGHYPLEKRVEECLRGGKIITTPRIEDALVVSERGGDFKLILGQDLSIGYEDREKDAVRLFITETFTFQVVNPEALILLKF
notes: encapsulin shell protein of Thermotoga maritima, T1 icosahedral shell, 24 nm, 60 subunits; Cloned into pBAD/HisA cut with NcoI and XhoI; also called T. maritima encapsulin protein; source: E. coli One shot BL21 (DE3) Star, pBAD/HisA, L-arabinose induced; purified as assembled particles (PEG-8000 precipitation, SEC, anion exchange); copies: 60

Assays:
[1] = target: B4; experiment: bulk fluorescence of purified encapsulin particles (loading percentage); particles loaded in E. coli and purified; 15 ug/mL in 20 mM Tris, 100 mM NaCl, pH 8 with 1 mg/mL BSA; plate reader Ex 500 nm, Em 530 nm, 20 C; loading = percentage of occupied TP binding sites (T1: 60, T3: 180), mNeonGreen standard curve; triplicates; details: partners not purified
[2] = target: T1, Myxococcus xanthus encapsulin (T3 encapsulin shell) (M. xanthus, UniProt Q1D6H4 1-287); experiment: as above; details: partners not purified
T1 construct: encapsulin shell protein of Myxococcus xanthus, T3 icosahedral shell, 32 nm, 180 subunits; Cloned into pBAD/HisA cut with NcoI and XhoI; also called M. xanthus encapsulin protein; source: E. coli One shot BL21 (DE3) Star, pBAD/HisA, L-arabinose induced; purified as assembled particles (PEG-8000 precipitation, SEC, anion exchange); copies: 180
T1 sequence (Q1D6H4 whole entry): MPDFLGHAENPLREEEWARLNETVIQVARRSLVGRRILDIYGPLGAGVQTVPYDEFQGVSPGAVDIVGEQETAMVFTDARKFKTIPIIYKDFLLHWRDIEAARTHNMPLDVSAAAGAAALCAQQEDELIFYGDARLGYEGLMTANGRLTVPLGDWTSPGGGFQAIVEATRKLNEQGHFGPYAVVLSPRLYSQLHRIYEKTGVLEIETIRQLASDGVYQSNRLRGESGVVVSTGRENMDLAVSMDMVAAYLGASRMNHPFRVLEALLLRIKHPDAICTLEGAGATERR

[3] = target: the molecule itself; experiment: negative stain transmission electron microscopy; purified particles, 1 mg/mL in low salt buffer, uranyl formate stain, 80 keV

Row | Binder | cargo proteins per shell [1] [cargo proteins per shell] | also measured
1 | B1 | ~2 | –
2 | B2 | ~2 | –
3 | B3 | – | cargo proteins per shell [2]: ~45 cargo proteins per shell
4 | B4 | – | binding result [3]: binds
